Consider one variant from IntAct's records for PubMed 19109891.

B1: Dystrophin (Homo sapiens), P11532-5 (parent)
chain: MREQLKGHETQTTCWDHPKMTELYQSLADLNNVRFSAYRTAMKLRRLQKALCLDLLSLSAACDALDQHNLKQNDQPMDILQIINCLTTIYDRLEQEHNNLVNVPLCVDMCLNWLLNVYDTGRTGRIRVLSFKTGIISLCKAHLEDKYRYLFKQVASSTGFCDQRRLGLLLHDSIQIPRQLGEVASFGGSNIEPSVRSCFQFANNKPEIEAALFLDWMRLEPQSMVWLPVLHRVAAAETAKHQAKCNICKECPIIGFRYRSLKHFNYDICQSCFFSGRVAKGHKMHYPMVEYCTPTTSGEDVRDFAKVLKNKFRTKRYFAKHPRMGYLPVQTVLEGDNMETPASSPQLSHDDTHSRIEHYASRLAEMENSNGSYLNDSISPNESIDDEHLLIQHYCQSLNQDSPLSQPRSPAQILISLESEERGELERILADLEEENRNLQAEYDRLKQQHEHKGLSPLPSPPEMMPTSPQSPRDAELIAEAKLLRQHKGRLEARMQILEDHNKQLESQLHRLRQLLEQPQAEAKVNGTTVSSPSTSLQRSDSSQPMLLRVVGSQTSDSMGEEDLLSPPQDTSTGLEEVMEQLNNSFPSSRGHNVGSLFHMADDLGRAMESLVSVMTDEEGAE

The assay covers variants of B1. The following applies: with ank2_human ANK2, Q01484.
Chain of ank2_human ANK2, Q01484 (Q01484 whole entry): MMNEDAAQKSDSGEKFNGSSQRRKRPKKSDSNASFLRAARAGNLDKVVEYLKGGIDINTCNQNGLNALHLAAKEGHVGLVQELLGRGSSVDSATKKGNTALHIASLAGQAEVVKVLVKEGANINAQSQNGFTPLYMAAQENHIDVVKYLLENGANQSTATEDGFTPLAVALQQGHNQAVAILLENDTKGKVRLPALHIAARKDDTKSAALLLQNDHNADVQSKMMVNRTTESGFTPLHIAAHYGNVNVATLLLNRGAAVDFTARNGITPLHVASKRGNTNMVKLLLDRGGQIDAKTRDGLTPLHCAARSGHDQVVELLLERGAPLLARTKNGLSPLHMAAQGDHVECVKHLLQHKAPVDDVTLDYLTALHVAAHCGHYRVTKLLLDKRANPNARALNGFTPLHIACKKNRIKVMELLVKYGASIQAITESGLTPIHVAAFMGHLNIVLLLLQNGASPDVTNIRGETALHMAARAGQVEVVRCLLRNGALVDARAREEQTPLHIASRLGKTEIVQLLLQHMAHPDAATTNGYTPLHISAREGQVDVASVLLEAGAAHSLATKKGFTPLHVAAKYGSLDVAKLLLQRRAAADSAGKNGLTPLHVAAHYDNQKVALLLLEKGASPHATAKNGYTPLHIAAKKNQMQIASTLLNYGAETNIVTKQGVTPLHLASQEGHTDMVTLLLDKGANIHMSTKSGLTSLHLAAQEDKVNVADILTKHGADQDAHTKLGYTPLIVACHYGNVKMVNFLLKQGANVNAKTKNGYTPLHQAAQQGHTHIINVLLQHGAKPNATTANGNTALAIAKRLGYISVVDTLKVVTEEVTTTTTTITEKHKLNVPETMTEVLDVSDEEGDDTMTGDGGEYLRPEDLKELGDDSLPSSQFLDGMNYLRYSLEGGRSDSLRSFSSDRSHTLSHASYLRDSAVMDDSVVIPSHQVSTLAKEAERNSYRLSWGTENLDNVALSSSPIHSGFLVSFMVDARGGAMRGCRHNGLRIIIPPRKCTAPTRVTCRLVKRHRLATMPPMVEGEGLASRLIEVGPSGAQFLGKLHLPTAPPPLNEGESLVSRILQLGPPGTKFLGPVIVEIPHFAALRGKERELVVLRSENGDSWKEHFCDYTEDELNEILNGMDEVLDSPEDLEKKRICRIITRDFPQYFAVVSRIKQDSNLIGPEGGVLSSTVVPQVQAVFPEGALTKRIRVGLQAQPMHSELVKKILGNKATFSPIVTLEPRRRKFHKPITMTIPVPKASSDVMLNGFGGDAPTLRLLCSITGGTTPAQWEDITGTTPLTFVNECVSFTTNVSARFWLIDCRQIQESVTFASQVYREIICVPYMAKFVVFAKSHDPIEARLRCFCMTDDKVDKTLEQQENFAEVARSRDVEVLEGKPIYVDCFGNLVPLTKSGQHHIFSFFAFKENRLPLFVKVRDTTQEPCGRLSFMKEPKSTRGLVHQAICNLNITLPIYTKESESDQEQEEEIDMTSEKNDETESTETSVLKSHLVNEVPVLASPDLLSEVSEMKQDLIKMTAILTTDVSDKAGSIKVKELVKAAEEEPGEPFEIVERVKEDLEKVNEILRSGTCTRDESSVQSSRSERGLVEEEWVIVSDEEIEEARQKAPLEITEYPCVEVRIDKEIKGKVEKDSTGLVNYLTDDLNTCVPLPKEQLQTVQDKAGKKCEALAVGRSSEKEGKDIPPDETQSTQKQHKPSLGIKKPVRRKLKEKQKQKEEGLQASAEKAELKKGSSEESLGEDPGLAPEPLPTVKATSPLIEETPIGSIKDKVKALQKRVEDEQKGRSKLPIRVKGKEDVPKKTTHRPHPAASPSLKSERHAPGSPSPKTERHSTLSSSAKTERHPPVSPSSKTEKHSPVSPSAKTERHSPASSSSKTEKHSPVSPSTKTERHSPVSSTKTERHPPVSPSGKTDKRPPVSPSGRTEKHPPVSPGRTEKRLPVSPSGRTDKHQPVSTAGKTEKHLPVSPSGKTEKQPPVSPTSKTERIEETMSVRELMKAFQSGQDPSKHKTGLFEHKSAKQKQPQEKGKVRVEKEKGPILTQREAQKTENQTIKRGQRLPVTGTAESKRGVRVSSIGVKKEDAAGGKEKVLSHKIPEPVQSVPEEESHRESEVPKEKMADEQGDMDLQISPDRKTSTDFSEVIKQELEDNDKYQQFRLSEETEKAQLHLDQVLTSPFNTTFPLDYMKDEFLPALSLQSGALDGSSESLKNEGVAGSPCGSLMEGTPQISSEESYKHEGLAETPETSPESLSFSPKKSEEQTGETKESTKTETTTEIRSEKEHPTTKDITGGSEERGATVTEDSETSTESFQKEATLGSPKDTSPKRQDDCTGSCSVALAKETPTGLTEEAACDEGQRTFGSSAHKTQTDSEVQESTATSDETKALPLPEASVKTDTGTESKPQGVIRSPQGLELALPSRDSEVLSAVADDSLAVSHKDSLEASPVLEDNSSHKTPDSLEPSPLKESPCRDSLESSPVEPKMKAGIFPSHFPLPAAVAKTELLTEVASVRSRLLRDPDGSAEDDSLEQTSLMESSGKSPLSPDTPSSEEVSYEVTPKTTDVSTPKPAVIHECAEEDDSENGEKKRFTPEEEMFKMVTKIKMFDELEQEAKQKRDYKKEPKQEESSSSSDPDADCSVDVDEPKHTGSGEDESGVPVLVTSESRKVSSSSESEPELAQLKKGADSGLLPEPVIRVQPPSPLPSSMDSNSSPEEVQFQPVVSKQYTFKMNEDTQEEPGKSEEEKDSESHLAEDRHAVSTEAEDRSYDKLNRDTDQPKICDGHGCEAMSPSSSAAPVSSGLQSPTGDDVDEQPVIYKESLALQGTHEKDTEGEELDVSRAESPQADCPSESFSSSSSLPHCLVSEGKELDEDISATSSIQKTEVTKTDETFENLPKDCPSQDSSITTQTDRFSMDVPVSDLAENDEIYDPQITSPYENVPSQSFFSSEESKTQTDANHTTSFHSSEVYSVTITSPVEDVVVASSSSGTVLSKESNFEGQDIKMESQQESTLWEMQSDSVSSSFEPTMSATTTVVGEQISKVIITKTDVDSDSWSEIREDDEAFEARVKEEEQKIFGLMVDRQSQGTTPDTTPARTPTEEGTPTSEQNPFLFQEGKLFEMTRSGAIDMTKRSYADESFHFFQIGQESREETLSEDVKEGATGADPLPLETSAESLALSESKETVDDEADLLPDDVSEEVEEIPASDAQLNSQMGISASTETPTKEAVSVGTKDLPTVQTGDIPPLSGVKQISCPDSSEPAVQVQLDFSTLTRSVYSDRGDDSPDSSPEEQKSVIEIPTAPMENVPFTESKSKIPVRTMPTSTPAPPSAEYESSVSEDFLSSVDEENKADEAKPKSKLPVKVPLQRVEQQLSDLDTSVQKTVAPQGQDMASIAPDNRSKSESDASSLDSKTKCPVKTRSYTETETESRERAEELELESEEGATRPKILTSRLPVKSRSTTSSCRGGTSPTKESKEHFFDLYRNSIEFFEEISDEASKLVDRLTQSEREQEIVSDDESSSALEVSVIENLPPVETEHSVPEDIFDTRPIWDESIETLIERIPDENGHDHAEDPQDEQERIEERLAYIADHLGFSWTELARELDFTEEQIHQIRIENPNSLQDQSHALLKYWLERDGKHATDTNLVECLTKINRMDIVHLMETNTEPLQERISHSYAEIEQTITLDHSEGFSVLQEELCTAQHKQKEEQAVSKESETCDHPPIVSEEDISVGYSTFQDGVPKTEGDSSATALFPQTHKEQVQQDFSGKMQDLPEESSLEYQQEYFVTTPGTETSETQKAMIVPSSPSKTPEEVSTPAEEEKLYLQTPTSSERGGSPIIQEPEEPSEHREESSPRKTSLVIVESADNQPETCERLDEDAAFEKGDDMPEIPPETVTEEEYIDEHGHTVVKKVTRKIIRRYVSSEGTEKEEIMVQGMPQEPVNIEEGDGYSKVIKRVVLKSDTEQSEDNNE
Regarding D267N, the “effect of a mutation on the interaction” value is reported as “decreasing interaction”.
